Measurements taken from paper PMC3322178 (Biochemistry, 2009).
Where a chain is given by its changes, count along the chain named. Names may count otherwise. Where two headings read alike, the source gives them in different places. Each block holds one molecule with its values, some of them ahead of it.

Columns and labels:
[1] = target: ASF/SF2 (Homo sapiens) (UniProt Q07955); conditions: cited from earlier work
[2] = target: T1, His-SRPK1(FL), full length SR protein kinase 1 (UniProt Q96SB4 1-655); assay: pull-down
[3] = target: T1, His-SRPK1(FL), full length SR protein …; assay: pull-down; remark: listed apart in the source

- binding result [2]: binds
B3: GST-ASFΔβ4ΔRS (residues 1-179) (domain or fragment, human, UniProt Q07955 1-179, looked up)
chain: MSGGGVIRGPAGNNDCRIYVGNLPPDIRTKDIEDVFYKYGAIRDIDLKNRRGGPPFAFVEFEDPRDAEDAVYGRDGYDYDGYRLRVEFPRSGRGTGRGGGGGGGGGAPRGRYGPPSRRSENRVVVSGLPPSGSWQDLKDHMREAGDVCYADVYRDGTGVVEFVRKEDMTYAVRKLDNTK

- binding result [3]: binds
B4: GST-ASF(RRM2)-R154A (domain or fragment, human, UniProt Q07955 105-196, looked up)
chain: GGAPRGRYGPPSRRSENRVVVSGLPPSGSWQDLKDHMREAGDVCYADVYADGTGVVEFVRKEDMTYAVRKLDNTKFRSHEGETAYIRVKVDG

- binding result [2]: binds
B5: GST-ASF(RRM2)-W134A (domain or fragment, human, UniProt Q07955 105-196, looked up)
chain: B4 chain with W30A, A50R

Second part, the molecule before the results:

Molecule: SRPK1 (from UniProt Q96SB4)
- Kd [1]: 50 nM

B1: GST-ASF(RRM2)-Q135A (domain or fragment, human, UniProt Q07955 105-196, looked up)
chain: B4 chain with Q31A, A50R
- binding result [2]: binds

B2: GST-ASF(RS), ASF/SF2 RS domain residues 183-248 (domain or fragment, human, UniProt Q07955 183-248, looked up)
chain: HEGETAYIRVKVDGPRSPSYGRSRSRSRSRSRSRSRSNSRSRSYSPRRSRGSPRYSPRHSRSRSRT
- binding result [3]: binds
